Results reported in IntAct's records for PubMed 35512704.

B1: Speckle-type POZ protein (Homo sapiens), O43791 (parent)
chain: MSRVPSPPPPAEMSSGPVAESWCYTQIKVVKFSYMWTINNFSFCREEMGEVIKSSTFSSGANDKLKWCLRVNPKGLDEESKDYLSLYLLLVSCPKSEVRAKFKFSILNAKGEETKAMESQRAYRFVQGKDWGFKKFIRRDFLLDEANGLLPDDKLTLFCEVSVVQDSVNISGQNTMNMVKVPECRLADELGGLWENSRFTDCCLCVAGQEFQAHKAILAARSPVFSAMFEHEMEESKKNRVEINDVEPEVFKEMMCFIYTGKAPNLDKMADDLLAAADKYALERLKVMCEDALCSNLSVENAAEILILADLHSADQLKTQAVDFINYHASDVLETSGWKSMVVSHPHLVAEAYRSLASAQCPFLGPPRKRLKQS

Variants of: B1
Conditions: with cdk6_human CDK6, Q00534
cdk6_human CDK6, Q00534, sequence (Q00534 whole entry): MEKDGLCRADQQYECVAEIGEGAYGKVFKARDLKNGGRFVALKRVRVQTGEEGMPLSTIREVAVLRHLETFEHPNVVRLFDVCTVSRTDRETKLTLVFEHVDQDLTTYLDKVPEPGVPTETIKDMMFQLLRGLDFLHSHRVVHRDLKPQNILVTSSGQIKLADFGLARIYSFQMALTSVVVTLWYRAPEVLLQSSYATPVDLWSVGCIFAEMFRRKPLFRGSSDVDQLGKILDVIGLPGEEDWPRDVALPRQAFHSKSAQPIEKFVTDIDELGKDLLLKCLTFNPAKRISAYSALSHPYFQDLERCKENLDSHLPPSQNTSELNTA

Row | effect of a mutation on the interaction | Variant
1 | with no effect | MSRVPSPPPPAEMSSGPVAESWCYTQIKVVKFSYMWTINNFSFCREEMGEVIKSSTFSSGANDKLKWCLRVNPKGLDEESKDYLSLYLLLVSCPKSEVRAKFKFSILNAKGEETKAMESQRAYRFVQGKDWGLKKFIRRDFLLDEANGLLPDDKLTLFCEVSVVQDSVNISGQNTMNMVKVPECRLADELGGLWENSRFTDCCLCVAGQEFQAHKAILAARSPVFSAMFEHEMEESKKNRVEINDVEPEVFKEMMCFIYTGKAPNLDKMADDLLAAADKYALERLKVMCEDALCSNLSVENAAEILILADLHSADQLKTQAVDFINYHASDVLETSGWKSMVVSHPHLVAEAYRSLASAQCPFLGPPRKRLKQS [F133L]

Variants of: B1
Conditions: with cdn2c_human CDKN2C

Row | effect of a mutation on the interaction | Variant
2 | with no effect | MSRVPSPPPPAEMSSGPVAESWCYTQIKVVKFSYMWTINNFSFCREEMGEVIKSSTFSSGANDKLKWCLRVNPKGLDEESKDYLSLYLLLVSCPKSEVRAKFKFSILNAKGEETKAMESQRAYRFVQGKDWGLKKFIRRDFLLDEANGLLPDDKLTLFCEVSVVQDSVNISGQNTMNMVKVPECRLADELGGLWENSRFTDCCLCVAGQEFQAHKAILAARSPVFSAMFEHEMEESKKNRVEINDVEPEVFKEMMCFIYTGKAPNLDKMADDLLAAADKYALERLKVMCEDALCSNLSVENAAEILILADLHSADQLKTQAVDFINYHASDVLETSGWKSMVVSHPHLVAEAYRSLASAQCPFLGPPRKRLKQS [F133L]

Variants of: B1
Conditions: with chd1l_human CHD1L

Row | effect of a mutation on the interaction | Variant
3 | with no effect | MSRVPSPPPPAEMSSGPVAESWCYTQIKVVKFSYMWTINNFSFCREEMGEVIKSSTFSSGANDKLKWCLRVNPKGLDEESKDYLSLYLLLVSCPKSEVRAKFKFSILNAKGEETKAMESQRAYRFVQGKDWGLKKFIRRDFLLDEANGLLPDDKLTLFCEVSVVQDSVNISGQNTMNMVKVPECRLADELGGLWENSRFTDCCLCVAGQEFQAHKAILAARSPVFSAMFEHEMEESKKNRVEINDVEPEVFKEMMCFIYTGKAPNLDKMADDLLAAADKYALERLKVMCEDALCSNLSVENAAEILILADLHSADQLKTQAVDFINYHASDVLETSGWKSMVVSHPHLVAEAYRSLASAQCPFLGPPRKRLKQS [F133L]

Variants of: B1
Conditions: with chd2_human CHD2, O14647

Row | effect of a mutation on the interaction | Variant
4 | with no effect | MSRVPSPPPPAEMSSGPVAESWCYTQIKVVKFSYMWTINNFSFCREEMGEVIKSSTFSSGANDKLKWCLRVNPKGLDEESKDYLSLYLLLVSCPKSEVRAKFKFSILNAKGEETKAMESQRAYRFVQGKDWGLKKFIRRDFLLDEANGLLPDDKLTLFCEVSVVQDSVNISGQNTMNMVKVPECRLADELGGLWENSRFTDCCLCVAGQEFQAHKAILAARSPVFSAMFEHEMEESKKNRVEINDVEPEVFKEMMCFIYTGKAPNLDKMADDLLAAADKYALERLKVMCEDALCSNLSVENAAEILILADLHSADQLKTQAVDFINYHASDVLETSGWKSMVVSHPHLVAEAYRSLASAQCPFLGPPRKRLKQS [F133L]

Variants of: B1
Conditions: with chk2_human CHEK2, O96017
chk2_human CHEK2, O96017, sequence (O96017 whole entry): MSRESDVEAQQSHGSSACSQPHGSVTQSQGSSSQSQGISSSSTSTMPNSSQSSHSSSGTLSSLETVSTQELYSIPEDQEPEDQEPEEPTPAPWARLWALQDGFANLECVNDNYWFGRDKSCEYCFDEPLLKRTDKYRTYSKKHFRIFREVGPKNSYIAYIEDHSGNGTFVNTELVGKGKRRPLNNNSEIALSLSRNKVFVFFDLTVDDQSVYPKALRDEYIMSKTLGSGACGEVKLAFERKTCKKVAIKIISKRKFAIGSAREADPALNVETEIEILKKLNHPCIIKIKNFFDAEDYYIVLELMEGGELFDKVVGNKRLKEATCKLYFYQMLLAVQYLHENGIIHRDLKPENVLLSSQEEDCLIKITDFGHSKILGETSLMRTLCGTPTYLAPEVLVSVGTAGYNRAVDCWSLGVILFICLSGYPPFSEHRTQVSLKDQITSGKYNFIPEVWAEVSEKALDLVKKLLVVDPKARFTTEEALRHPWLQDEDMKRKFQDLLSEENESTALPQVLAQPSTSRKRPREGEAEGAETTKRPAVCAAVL

Row | effect of a mutation on the interaction | Variant
5 | with no effect | MSRVPSPPPPAEMSSGPVAESWCYTQIKVVKFSYMWTINNFSFCREEMGEVIKSSTFSSGANDKLKWCLRVNPKGLDEESKDYLSLYLLLVSCPKSEVRAKFKFSILNAKGEETKAMESQRAYRFVQGKDWGLKKFIRRDFLLDEANGLLPDDKLTLFCEVSVVQDSVNISGQNTMNMVKVPECRLADELGGLWENSRFTDCCLCVAGQEFQAHKAILAARSPVFSAMFEHEMEESKKNRVEINDVEPEVFKEMMCFIYTGKAPNLDKMADDLLAAADKYALERLKVMCEDALCSNLSVENAAEILILADLHSADQLKTQAVDFINYHASDVLETSGWKSMVVSHPHLVAEAYRSLASAQCPFLGPPRKRLKQS [F133L]

Variants of: B1
Conditions: with ch3l1_human CHI3L1, P36222
ch3l1_human CHI3L1, P36222, sequence (P36222 whole entry): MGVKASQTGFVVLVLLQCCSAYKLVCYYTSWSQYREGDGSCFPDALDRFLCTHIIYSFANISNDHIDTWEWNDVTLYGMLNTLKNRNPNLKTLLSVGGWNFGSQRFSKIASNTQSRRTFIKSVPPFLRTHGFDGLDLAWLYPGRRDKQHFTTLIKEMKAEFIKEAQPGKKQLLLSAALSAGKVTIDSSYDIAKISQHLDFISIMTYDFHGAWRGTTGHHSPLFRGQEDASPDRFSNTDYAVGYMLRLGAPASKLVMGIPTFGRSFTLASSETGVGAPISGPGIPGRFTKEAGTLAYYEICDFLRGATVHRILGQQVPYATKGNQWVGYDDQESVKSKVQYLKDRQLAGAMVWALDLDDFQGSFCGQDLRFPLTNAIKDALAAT

Row | effect of a mutation on the interaction | Variant
6 | with no effect | MSRVPSPPPPAEMSSGPVAESWCYTQIKVVKFSYMWTINNFSFCREEMGEVIKSSTFSSGANDKLKWCLRVNPKGLDEESKDYLSLYLLLVSCPKSEVRAKFKFSILNAKGEETKAMESQRAYRFVQGKDWGLKKFIRRDFLLDEANGLLPDDKLTLFCEVSVVQDSVNISGQNTMNMVKVPECRLADELGGLWENSRFTDCCLCVAGQEFQAHKAILAARSPVFSAMFEHEMEESKKNRVEINDVEPEVFKEMMCFIYTGKAPNLDKMADDLLAAADKYALERLKVMCEDALCSNLSVENAAEILILADLHSADQLKTQAVDFINYHASDVLETSGWKSMVVSHPHLVAEAYRSLASAQCPFLGPPRKRLKQS [F133L]

Variants of: B1
Conditions: with csf1r_human CSF1R

Row | effect of a mutation on the interaction | Variant
7 | with no effect | MSRVPSPPPPAEMSSGPVAESWCYTQIKVVKFSYMWTINNFSFCREEMGEVIKSSTFSSGANDKLKWCLRVNPKGLDEESKDYLSLYLLLVSCPKSEVRAKFKFSILNAKGEETKAMESQRAYRFVQGKDWGLKKFIRRDFLLDEANGLLPDDKLTLFCEVSVVQDSVNISGQNTMNMVKVPECRLADELGGLWENSRFTDCCLCVAGQEFQAHKAILAARSPVFSAMFEHEMEESKKNRVEINDVEPEVFKEMMCFIYTGKAPNLDKMADDLLAAADKYALERLKVMCEDALCSNLSVENAAEILILADLHSADQLKTQAVDFINYHASDVLETSGWKSMVVSHPHLVAEAYRSLASAQCPFLGPPRKRLKQS [F133L]

Variants of: B1
Conditions: with ctla4_human CTLA4, P16410

Row | effect of a mutation on the interaction | Variant
8 | with no effect | MSRVPSPPPPAEMSSGPVAESWCYTQIKVVKFSYMWTINNFSFCREEMGEVIKSSTFSSGANDKLKWCLRVNPKGLDEESKDYLSLYLLLVSCPKSEVRAKFKFSILNAKGEETKAMESQRAYRFVQGKDWGLKKFIRRDFLLDEANGLLPDDKLTLFCEVSVVQDSVNISGQNTMNMVKVPECRLADELGGLWENSRFTDCCLCVAGQEFQAHKAILAARSPVFSAMFEHEMEESKKNRVEINDVEPEVFKEMMCFIYTGKAPNLDKMADDLLAAADKYALERLKVMCEDALCSNLSVENAAEILILADLHSADQLKTQAVDFINYHASDVLETSGWKSMVVSHPHLVAEAYRSLASAQCPFLGPPRKRLKQS [F133L]

Variants of: B1
Conditions: with cul3_human CUL3, Q13618

Row | effect of a mutation on the interaction | Variant
9 | with no effect | MSRVPSPPPPAEMSSGPVAESWCYTQIKVVKFSYMWTINNFSFCREEMGEVIKSSTFSSGANDKLKWCLRVNPKGLDEESKDYLSLYLLLVSCPKSEVRAKFKFSILNAKGEETKAMESQRAYRFVQGKDWGLKKFIRRDFLLDEANGLLPDDKLTLFCEVSVVQDSVNISGQNTMNMVKVPECRLADELGGLWENSRFTDCCLCVAGQEFQAHKAILAARSPVFSAMFEHEMEESKKNRVEINDVEPEVFKEMMCFIYTGKAPNLDKMADDLLAAADKYALERLKVMCEDALCSNLSVENAAEILILADLHSADQLKTQAVDFINYHASDVLETSGWKSMVVSHPHLVAEAYRSLASAQCPFLGPPRKRLKQS [F133L]

Variants of: B1
Conditions: with daxx_human DAXX

Row | effect of a mutation on the interaction | Variant
10 | with no effect | MSRVPSPPPPAEMSSGPVAESWCYTQIKVVKFSYMWTINNFSFCREEMGEVIKSSTFSSGANDKLKWCLRVNPKGLDEESKDYLSLYLLLVSCPKSEVRAKFKFSILNAKGEETKAMESQRAYRFVQGKDWGLKKFIRRDFLLDEANGLLPDDKLTLFCEVSVVQDSVNISGQNTMNMVKVPECRLADELGGLWENSRFTDCCLCVAGQEFQAHKAILAARSPVFSAMFEHEMEESKKNRVEINDVEPEVFKEMMCFIYTGKAPNLDKMADDLLAAADKYALERLKVMCEDALCSNLSVENAAEILILADLHSADQLKTQAVDFINYHASDVLETSGWKSMVVSHPHLVAEAYRSLASAQCPFLGPPRKRLKQS [F133L]

Variants of: B1
Conditions: with ddx5_human DDX5, P17844
ddx5_human DDX5, P17844, sequence (P17844 whole entry): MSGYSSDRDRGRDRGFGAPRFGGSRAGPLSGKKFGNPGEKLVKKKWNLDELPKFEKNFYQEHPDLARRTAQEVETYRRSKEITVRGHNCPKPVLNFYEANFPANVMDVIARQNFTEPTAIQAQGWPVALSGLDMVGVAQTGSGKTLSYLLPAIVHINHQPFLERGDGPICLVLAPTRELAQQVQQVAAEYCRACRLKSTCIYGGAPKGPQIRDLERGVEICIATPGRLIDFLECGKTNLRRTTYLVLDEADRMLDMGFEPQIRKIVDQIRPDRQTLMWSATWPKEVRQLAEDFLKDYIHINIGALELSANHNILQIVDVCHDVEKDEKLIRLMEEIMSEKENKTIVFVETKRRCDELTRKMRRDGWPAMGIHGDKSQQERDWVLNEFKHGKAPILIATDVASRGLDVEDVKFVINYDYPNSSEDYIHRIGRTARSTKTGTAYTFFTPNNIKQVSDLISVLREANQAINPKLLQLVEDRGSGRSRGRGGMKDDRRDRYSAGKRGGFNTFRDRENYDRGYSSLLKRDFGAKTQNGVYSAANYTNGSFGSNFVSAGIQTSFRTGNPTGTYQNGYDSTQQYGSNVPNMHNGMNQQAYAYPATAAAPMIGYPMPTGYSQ

Row | effect of a mutation on the interaction | Variant
11 | with no effect | MSRVPSPPPPAEMSSGPVAESWCYTQIKVVKFSYMWTINNFSFCREEMGEVIKSSTFSSGANDKLKWCLRVNPKGLDEESKDYLSLYLLLVSCPKSEVRAKFKFSILNAKGEETKAMESQRAYRFVQGKDWGLKKFIRRDFLLDEANGLLPDDKLTLFCEVSVVQDSVNISGQNTMNMVKVPECRLADELGGLWENSRFTDCCLCVAGQEFQAHKAILAARSPVFSAMFEHEMEESKKNRVEINDVEPEVFKEMMCFIYTGKAPNLDKMADDLLAAADKYALERLKVMCEDALCSNLSVENAAEILILADLHSADQLKTQAVDFINYHASDVLETSGWKSMVVSHPHLVAEAYRSLASAQCPFLGPPRKRLKQS [F133L]

Variants of: B1
Conditions: with dll3_human DLL3, Q9NYJ7
dll3_human DLL3, Q9NYJ7, sequence (Q9NYJ7 whole entry): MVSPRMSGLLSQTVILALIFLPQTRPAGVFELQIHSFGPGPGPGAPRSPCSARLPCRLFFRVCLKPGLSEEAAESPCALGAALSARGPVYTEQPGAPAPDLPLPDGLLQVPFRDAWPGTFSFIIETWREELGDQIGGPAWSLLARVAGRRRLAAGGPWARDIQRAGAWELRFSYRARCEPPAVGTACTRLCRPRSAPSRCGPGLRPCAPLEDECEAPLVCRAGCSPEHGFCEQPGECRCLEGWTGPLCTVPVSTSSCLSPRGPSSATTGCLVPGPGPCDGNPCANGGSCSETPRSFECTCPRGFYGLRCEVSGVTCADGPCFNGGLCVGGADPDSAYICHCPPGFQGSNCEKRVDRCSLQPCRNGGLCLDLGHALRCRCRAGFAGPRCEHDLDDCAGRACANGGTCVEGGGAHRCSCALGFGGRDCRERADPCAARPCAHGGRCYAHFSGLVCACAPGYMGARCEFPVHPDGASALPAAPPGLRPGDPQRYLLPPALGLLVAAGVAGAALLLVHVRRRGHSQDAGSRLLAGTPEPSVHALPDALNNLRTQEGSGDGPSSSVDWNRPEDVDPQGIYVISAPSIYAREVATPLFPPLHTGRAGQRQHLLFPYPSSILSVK

Row | effect of a mutation on the interaction | Variant
12 | with no effect | MSRVPSPPPPAEMSSGPVAESWCYTQIKVVKFSYMWTINNFSFCREEMGEVIKSSTFSSGANDKLKWCLRVNPKGLDEESKDYLSLYLLLVSCPKSEVRAKFKFSILNAKGEETKAMESQRAYRFVQGKDWGLKKFIRRDFLLDEANGLLPDDKLTLFCEVSVVQDSVNISGQNTMNMVKVPECRLADELGGLWENSRFTDCCLCVAGQEFQAHKAILAARSPVFSAMFEHEMEESKKNRVEINDVEPEVFKEMMCFIYTGKAPNLDKMADDLLAAADKYALERLKVMCEDALCSNLSVENAAEILILADLHSADQLKTQAVDFINYHASDVLETSGWKSMVVSHPHLVAEAYRSLASAQCPFLGPPRKRLKQS [F133L]

Variants of: B1
Conditions: with duox2_human DUOX2, Q9NRD8
duox2_human DUOX2, Q9NRD8, sequence (Q9NRD8 whole entry): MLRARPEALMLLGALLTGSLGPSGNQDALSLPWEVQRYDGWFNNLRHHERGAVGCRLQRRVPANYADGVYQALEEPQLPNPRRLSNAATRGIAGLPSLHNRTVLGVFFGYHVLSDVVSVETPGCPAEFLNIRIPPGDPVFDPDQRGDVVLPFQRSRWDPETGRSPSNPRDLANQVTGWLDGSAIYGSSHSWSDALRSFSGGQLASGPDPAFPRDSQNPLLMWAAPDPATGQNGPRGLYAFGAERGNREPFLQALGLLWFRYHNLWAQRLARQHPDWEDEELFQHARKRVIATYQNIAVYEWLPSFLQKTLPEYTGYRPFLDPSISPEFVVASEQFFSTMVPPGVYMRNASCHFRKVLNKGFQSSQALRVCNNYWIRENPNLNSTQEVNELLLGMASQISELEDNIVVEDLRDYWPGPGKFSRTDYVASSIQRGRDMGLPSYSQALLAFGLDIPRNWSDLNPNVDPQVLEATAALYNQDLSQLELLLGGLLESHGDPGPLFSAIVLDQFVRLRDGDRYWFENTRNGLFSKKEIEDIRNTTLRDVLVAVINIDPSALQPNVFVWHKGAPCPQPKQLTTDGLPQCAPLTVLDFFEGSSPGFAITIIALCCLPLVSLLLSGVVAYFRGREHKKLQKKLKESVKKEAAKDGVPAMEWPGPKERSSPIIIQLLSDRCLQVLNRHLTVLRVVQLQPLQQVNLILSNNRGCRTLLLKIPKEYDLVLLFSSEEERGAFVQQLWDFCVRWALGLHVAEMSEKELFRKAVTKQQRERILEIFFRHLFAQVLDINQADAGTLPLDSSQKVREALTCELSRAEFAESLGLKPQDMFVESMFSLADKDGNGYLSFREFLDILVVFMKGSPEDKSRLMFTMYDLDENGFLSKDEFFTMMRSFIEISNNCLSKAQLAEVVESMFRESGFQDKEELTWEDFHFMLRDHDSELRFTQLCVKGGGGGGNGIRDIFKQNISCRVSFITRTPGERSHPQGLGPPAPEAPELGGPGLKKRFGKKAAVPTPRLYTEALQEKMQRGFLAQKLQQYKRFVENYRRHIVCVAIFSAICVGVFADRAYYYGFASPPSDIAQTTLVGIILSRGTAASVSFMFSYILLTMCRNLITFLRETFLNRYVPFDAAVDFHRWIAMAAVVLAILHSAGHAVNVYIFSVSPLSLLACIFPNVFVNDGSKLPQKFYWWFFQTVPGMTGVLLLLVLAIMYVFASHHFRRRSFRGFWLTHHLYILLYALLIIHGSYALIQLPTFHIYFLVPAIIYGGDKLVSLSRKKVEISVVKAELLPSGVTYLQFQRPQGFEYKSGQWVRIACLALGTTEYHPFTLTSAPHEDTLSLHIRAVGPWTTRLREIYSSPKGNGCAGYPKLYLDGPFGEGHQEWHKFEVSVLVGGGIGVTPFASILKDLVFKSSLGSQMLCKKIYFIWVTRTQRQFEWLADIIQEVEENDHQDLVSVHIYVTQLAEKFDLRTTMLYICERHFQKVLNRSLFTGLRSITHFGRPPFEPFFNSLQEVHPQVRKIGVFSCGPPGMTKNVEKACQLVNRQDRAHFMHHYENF

Row | effect of a mutation on the interaction | Variant
13 | with no effect | MSRVPSPPPPAEMSSGPVAESWCYTQIKVVKFSYMWTINNFSFCREEMGEVIKSSTFSSGANDKLKWCLRVNPKGLDEESKDYLSLYLLLVSCPKSEVRAKFKFSILNAKGEETKAMESQRAYRFVQGKDWGLKKFIRRDFLLDEANGLLPDDKLTLFCEVSVVQDSVNISGQNTMNMVKVPECRLADELGGLWENSRFTDCCLCVAGQEFQAHKAILAARSPVFSAMFEHEMEESKKNRVEINDVEPEVFKEMMCFIYTGKAPNLDKMADDLLAAADKYALERLKVMCEDALCSNLSVENAAEILILADLHSADQLKTQAVDFINYHASDVLETSGWKSMVVSHPHLVAEAYRSLASAQCPFLGPPRKRLKQS [F133L]

Variants of: B1
Conditions: with e2f2_human E2F2, Q14209
e2f2_human E2F2, Q14209, sequence (Q14209 whole entry): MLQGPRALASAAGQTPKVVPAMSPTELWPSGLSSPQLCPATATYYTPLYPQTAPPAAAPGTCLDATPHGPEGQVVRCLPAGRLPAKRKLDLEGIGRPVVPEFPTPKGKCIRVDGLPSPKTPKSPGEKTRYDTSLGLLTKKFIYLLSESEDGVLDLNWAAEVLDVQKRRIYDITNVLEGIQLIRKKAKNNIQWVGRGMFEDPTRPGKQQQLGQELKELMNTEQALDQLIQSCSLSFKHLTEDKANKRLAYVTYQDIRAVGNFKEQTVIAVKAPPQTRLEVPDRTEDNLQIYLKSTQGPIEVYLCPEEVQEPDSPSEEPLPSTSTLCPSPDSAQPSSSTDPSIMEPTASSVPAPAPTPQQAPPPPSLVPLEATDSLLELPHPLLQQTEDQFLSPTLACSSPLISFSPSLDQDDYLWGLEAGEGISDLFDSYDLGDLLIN

Row | effect of a mutation on the interaction | Variant
14 | with no effect | MSRVPSPPPPAEMSSGPVAESWCYTQIKVVKFSYMWTINNFSFCREEMGEVIKSSTFSSGANDKLKWCLRVNPKGLDEESKDYLSLYLLLVSCPKSEVRAKFKFSILNAKGEETKAMESQRAYRFVQGKDWGLKKFIRRDFLLDEANGLLPDDKLTLFCEVSVVQDSVNISGQNTMNMVKVPECRLADELGGLWENSRFTDCCLCVAGQEFQAHKAILAARSPVFSAMFEHEMEESKKNRVEINDVEPEVFKEMMCFIYTGKAPNLDKMADDLLAAADKYALERLKVMCEDALCSNLSVENAAEILILADLHSADQLKTQAVDFINYHASDVLETSGWKSMVVSHPHLVAEAYRSLASAQCPFLGPPRKRLKQS [F133L]

Variants of: B1
Conditions: with e2f3_human E2F3, O00716
e2f3_human E2F3, O00716, sequence (O00716 whole entry): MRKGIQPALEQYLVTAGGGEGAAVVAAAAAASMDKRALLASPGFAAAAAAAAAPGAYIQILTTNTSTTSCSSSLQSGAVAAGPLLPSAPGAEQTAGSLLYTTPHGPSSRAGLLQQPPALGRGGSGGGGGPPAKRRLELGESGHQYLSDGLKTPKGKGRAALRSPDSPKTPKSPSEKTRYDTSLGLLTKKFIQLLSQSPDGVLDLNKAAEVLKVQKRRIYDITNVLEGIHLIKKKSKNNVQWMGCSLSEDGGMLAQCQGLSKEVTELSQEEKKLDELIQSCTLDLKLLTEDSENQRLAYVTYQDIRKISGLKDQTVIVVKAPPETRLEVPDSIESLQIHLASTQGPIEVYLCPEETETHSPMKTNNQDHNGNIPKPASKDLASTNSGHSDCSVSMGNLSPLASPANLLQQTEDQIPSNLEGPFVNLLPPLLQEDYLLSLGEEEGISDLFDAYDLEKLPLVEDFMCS

Row | effect of a mutation on the interaction | Variant
15 | with no effect | MSRVPSPPPPAEMSSGPVAESWCYTQIKVVKFSYMWTINNFSFCREEMGEVIKSSTFSSGANDKLKWCLRVNPKGLDEESKDYLSLYLLLVSCPKSEVRAKFKFSILNAKGEETKAMESQRAYRFVQGKDWGLKKFIRRDFLLDEANGLLPDDKLTLFCEVSVVQDSVNISGQNTMNMVKVPECRLADELGGLWENSRFTDCCLCVAGQEFQAHKAILAARSPVFSAMFEHEMEESKKNRVEINDVEPEVFKEMMCFIYTGKAPNLDKMADDLLAAADKYALERLKVMCEDALCSNLSVENAAEILILADLHSADQLKTQAVDFINYHASDVLETSGWKSMVVSHPHLVAEAYRSLASAQCPFLGPPRKRLKQS [F133L]
